Article PMC8698469, “A Combined Spectroscopic and In Silico Approach to Evaluate the Interaction of Human Frataxin with Mitochondrial Superoxide Dismutase” (Biomedicines, 2021)

T1: human mitochondrial superoxide dismutase (SOD2), His-tag recombinant protein (human, UniProt P04179 25-222)
T1 construct: Trp residues are printed as W78, W123, W125, W161, W181, W186; also called Mn-SOD; (SOD2)4; source: bought: Technical Novusbio (His-tag recombinant protein)
T1 sequence: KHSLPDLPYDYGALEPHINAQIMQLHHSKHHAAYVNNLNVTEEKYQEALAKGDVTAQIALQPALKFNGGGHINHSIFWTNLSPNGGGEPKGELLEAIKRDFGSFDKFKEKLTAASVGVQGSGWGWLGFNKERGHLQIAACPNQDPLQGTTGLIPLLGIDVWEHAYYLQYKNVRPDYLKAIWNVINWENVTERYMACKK


Assays:
[1] = biological target: T1, human mitochondrial superoxide …; experiment: tryptophan fluorescence quenching (mixture against the sum of the single spectra); both in solution; FXN 1.4 uM, SOD2 1.9 uM (FXN:(SOD2)4 1:0.34), 288 K, mix of 20 mM TRIS-HCl pH 8 and 25 mM HEPES pH 7.0, 50 mM KCl, under nitrogen; details: both partners purified
[2] = biological target: T1, human mitochondrial superoxide …; experiment: SDSL-EPR (EPR spectra of spin-labelled protein, fitted rotational correlation time); both in solution; 10 uM spin-labelled FXN mutant without or with 40 uM SOD2 (FXN:(SOD2)4 1:1; also 1:0.5), room temperature, 18 uL SOD buffer (20 mM Tris HCl pH 8, 20% v/v glycerol) or SOD2 stock with 2 uL FXN stock, under nitrogen flow; details: both partners purified

| Binder | decrease in fluorescence quenching relative to the sum of the individual spectra [1] [%] | ΔτC (τC^+SOD − τC^−SOD) [2] [ns] |
| --- | --- | --- |
| human wild-type mature frataxin, FXN(90-210) (domain or fragment, UniProt Q16595 90-210, looked up, human frataxin, residues 90-210 of the 210 amino acid precursor, from plasmid pET-9b/FXN(90-210); also called WT FXN; source: E. coli BL21 (DE3), purified (DEAE Sepharose ion exchange, SEC on Superdex 200)) LDETTYERLAEETLDSLAEFFEDLADKPYTFEDYDVSFGSGVLTVKLGGDLGTYVINKQTPNKQIWLSSPSSGPKRYDWTGKNWVYSHDGVSLHELLAAELTKALKTKLDLSSLAYSGKDA | 17 |  |
| human FXN(90-210) A114C, spin-labelled with M-TETPO (domain or fragment, UniProt Q16595 90-210, looked up, M-TETPO nitroxide spin label on cysteine 114, human frataxin, residues 90-210, native residue mutated to cysteine for spin labelling; source: E. coli BL21 (DE3), purified (DEAE Sepharose ion exchange, SEC), labelled with M-TETPO) LDETTYERLAEETLDSLAEFFEDLCDKPYTFEDYDVSFGSGVLTVKLGGDLGTYVINKQTPNKQIWLSSPSSGPKRYDWTGKNWVYSHDGVSLHELLAAELTKALKTKLDLSSLAYSGKDA |  | 0.44 |
| human FXN(90-210) A193C, spin-labelled with M-TETPO (domain or fragment, UniProt Q16595 90-210, looked up, M-TETPO nitroxide spin label on cysteine 193, human frataxin, residues 90-210, native residue mutated to cysteine for spin labelling; source: E. coli BL21 (DE3), purified (DEAE Sepharose ion exchange, SEC), labelled with M-TETPO) LDETTYERLAEETLDSLAEFFEDLADKPYTFEDYDVSFGSGVLTVKLGGDLGTYVINKQTPNKQIWLSSPSSGPKRYDWTGKNWVYSHDGVSLHELLAAELTKCLKTKLDLSSLAYSGKDA |  | 0.41 |

Further lines, results first:

| decrease in fluorescence quenching relative to the sum of the individual spectra [1] [%] | ΔτC (τC^+SOD − τC^−SOD) [2] [ns] | Binder |
| --- | --- | --- |
|  | 0.4 | human FXN(90-210) T133C, spin-labelled with M-TETPO (domain or fragment, UniProt Q16595 90-210, looked up, M-TETPO nitroxide spin label on cysteine 133, human frataxin, residues 90-210, native residue mutated to cysteine for spin labelling; source: E. coli BL21 (DE3), purified (DEAE Sepharose ion exchange, SEC), labelled with M-TETPO) LDETTYERLAEETLDSLAEFFEDLADKPYTFEDYDVSFGSGVLCVKLGGDLGTYVINKQTPNKQIWLSSPSSGPKRYDWTGKNWVYSHDGVSLHELLAAELTKALKTKLDLSSLAYSGKDA |
|  | 0.56 | human FXN(90-210) H183C, spin-labelled with M-TETPO (domain or fragment, UniProt Q16595 90-210, looked up, M-TETPO nitroxide spin label on cysteine 183, human frataxin, residues 90-210, native residue mutated to cysteine for spin labelling; source: E. coli BL21 (DE3), purified (DEAE Sepharose ion exchange, SEC), labelled with M-TETPO) LDETTYERLAEETLDSLAEFFEDLADKPYTFEDYDVSFGSGVLTVKLGGDLGTYVINKQTPNKQIWLSSPSSGPKRYDWTGKNWVYSHDGVSLCELLAAELTKALKTKLDLSSLAYSGKDA |
